Series [1] deals with SARS-CoV-2. Kind of series: Cyclodextrin testing: antiviral activity against SARS-CoV-2 in Vero E6 cells (CPE). It counts as cell-based. The following applies: pH 7; lactoferrin alone 10 mg/mL, cyclodextrin alone 10 mg/mL, or lactoferrin 5 mg/mL + cyclodextrin 10 mg/mL.
The test system of another series is Vero cells. The following applies: 10 mg/mL lactoferrin, incubated up to 72 hours.
The subject of series [2] is SARS-CoV-2. Put plainly: SARS-CoV-2 cytopathic effect inhibition by lactoferrin at various pH levels in Vero E6 cells. The following applies: for average neutralizing titer: lactoferrin 10 mg/mL. The class given is cell-based, SARS-CoV-2 (strain COV2019 Italy/INM11). Background: Cytopathic effects are the visible damage that an infection or toxin causes in cultured cells.

Series [3] relates to SARS-CoV-2. The following applies: patients with SARS-CoV-2, after oral administration; cited from earlier work.
The test system of the next series is Vero E6 cells. The following applies: control without virus, 10 mg/mL.

B1: lactoferrin (protein, UniProt P02788 20-710, looked up)
Lactotransferrin: GRRRSVQWCAVSQPEATKCFQWQRNMRKVRGPPVSCIKRDSPIQCIQAIAENRADAVTLDGGFIYEAGLAPYKLRPVAAEVYGTERQPRTHYYAVAVVKKGGSFQLNELQGLKSCHTGLRRTAGWNVPIGTLRPFLNWTGPPEPIEAAVARFFSASCVPGADKGQFPNLCRLCAGTGENKCAFSSQEPYFSYSGAFKCLRDGAGDVAFIRESTVFEDLSDEAERDEYELLCPDNTRKPVDKFKDCHLARVPSHAVVARSVNGKEDAIWNLLRQAQEKFGKDKSPKFQLFGSPSGQKDLLFKDSAIGFSRVPPRIDSGLYLGSGYFTAIQNLRKSEEEVAARRARVVWCAVGEQELRKCNQWSGLSEGSVTCSSASTTEDCIALVLKGEADAMSLDGGYVYTAGKCGLVPVLAENYKSQQSSDPDPNCVDRPVEGYLAVAVVRRSDTSLTWNSVKGKKSCHTAVDRTAGWNIPMGLLFNQTGSCKFDEYFSQSCAPGSDPRSNLCALCIGDEQGENKCVPNSNERYYGYTGAFRCLAENAGDVAFVKDVTVLQNTDGNNNEAWAKDLKLADFALLCLDGKRKPVTEARSCHLAMAPNHAVVSRMDKVERLKQVLLHQQAKFGRNGSDCPDKFCLFQSETKNLLFNDNTECLARLHGKTTYEKYLGPQYVAGITNLKKCSTSPLLEACEFLRK
notes: stock solution in water at 10 mg/mL
With B1, the “antiviral activity (cytopathic effect)” value in the series with SARS-CoV-2 [1] is reported as “did not show antiviral activity”. The cellular cytotoxicity result in the series on Vero cells is “No cellular cytotoxicity”. Moreover, the “inhibitory effect on viral infection in Vero cells” value in the series with SARS-CoV-2 [2] (cells pre-incubated with lactoferrin 0.313-10 mg/mL for one hour) is listed as “showed an inhibitory effect”. The average neutralizing titer with SARS-CoV-2 [2] (pH 4) came out at 452. For the same molecule, in the series on SARS-CoV-2 [2] (pH 7), the average neutralizing titer is on record as 40 and the antiviral efficacy entry was “consistent low efficacy”. In addition, the “lactoferrin concentration of maximum inhibitory effect” value with SARS-CoV-2 [2] (pH 4, 5, and 6) is 5 mg/mL. Further, in the series on SARS-CoV-2 [2] (without the pre-incubation step, any pH), the “inhibitory effect on viral infection” value was “no inhibitory effect”. For the same molecule, the “time to reduced severity and duration of disease” value with SARS-CoV-2 [3] is 4 to 5 days. Also, in the series on Vero E6 cells, the “cytopathic effect on the cells” value is recorded as “neither the lactoferrin alone (10 mg/mL) or the cyclodextrin alone (10 mg/mL) had a cytopathic effect”.

The values above are taken from US20210361750A1, “Anti-Viral Lactoferrin Facemask” (priority 2020, published 2021).
